For orientation: Kd means the equilibrium constant for the complex coming apart. A high value points to weaker binding.

Test [1] has as its target T1, ZnF domain of A. thaliana SPL5 (Ser60-Leu127) (A. thaliana, UniProt Q9S758 60-127).
T1 chain: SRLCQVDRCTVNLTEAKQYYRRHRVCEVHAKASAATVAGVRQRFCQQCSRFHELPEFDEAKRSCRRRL
Put plainly: ITC; 25 °C, repeat 2. (ITC needs no label: the signal is the heat of the interaction.)

Test [2] deals with T1, ZnF domain of A. thaliana SPL5 …. Put plainly: ITC; 25 °C, repeat 1.

B1: SAP05 (mature, Ala33-Lys135) of Aster Yellows phytoplasma strain Witches Broom (natural protein)
chain: APNEEFVGDMRIVNVNLSNIDILKKHETFKKYFDFTLTGPRYNGNIAEFAMIWKIKNPPLNLLGVFFDDGTRDDEDDKYILEELKQIGNGAKNMYIFWQYEQK
Regarding B1, the Kd in test [1] was 0.388 µM; in test [2], 0.51 µM.

Source of the values: article doi:10.1101/2023.06.19.545293 (2023).
